According to US20050271638A1 (published 2005):

Biological target: T1, β-catenin (mouse, UniProt Q02248 2-781)
T1 construct: whole, on cells; Detected by immunostaining; also called B-catenin
T1 sequence (looked up): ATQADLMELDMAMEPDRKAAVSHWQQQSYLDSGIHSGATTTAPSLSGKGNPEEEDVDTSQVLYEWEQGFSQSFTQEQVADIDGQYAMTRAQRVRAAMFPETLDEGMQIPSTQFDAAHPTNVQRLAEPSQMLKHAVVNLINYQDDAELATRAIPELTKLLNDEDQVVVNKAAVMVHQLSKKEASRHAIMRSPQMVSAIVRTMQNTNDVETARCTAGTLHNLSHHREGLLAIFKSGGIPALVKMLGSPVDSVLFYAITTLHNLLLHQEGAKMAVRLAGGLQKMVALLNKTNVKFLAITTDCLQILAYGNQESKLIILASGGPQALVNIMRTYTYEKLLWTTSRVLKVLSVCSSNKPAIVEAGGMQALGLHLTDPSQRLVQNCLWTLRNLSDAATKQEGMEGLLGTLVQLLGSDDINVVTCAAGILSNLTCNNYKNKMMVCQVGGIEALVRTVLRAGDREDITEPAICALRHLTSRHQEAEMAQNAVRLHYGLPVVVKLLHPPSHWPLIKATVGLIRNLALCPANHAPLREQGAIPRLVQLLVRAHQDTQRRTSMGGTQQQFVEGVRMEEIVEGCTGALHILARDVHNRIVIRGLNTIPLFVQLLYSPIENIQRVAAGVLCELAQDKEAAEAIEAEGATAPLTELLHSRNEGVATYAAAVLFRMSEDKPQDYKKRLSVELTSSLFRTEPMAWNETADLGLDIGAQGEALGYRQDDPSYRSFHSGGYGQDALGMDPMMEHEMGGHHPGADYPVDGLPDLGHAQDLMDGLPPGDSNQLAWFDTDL
Test: co-immunostaining of wild-type mouse intestine sections (FIG. 7G)

B1: N-cadherin (other, mouse, UniProt P15116 160-906, looked up)
chain: DWVIPPINLPENSRGPFPQELVRIRSDRDKNLSLRYSVTGPGADQPPTGIFIINPISGQLSVTKPLDRELIARFHLRAHAVDINGNQVENPIDIVINVIDMNDNRPEFLHQVWNGSVPEGSKPGTYVMTVTAIDADDPNALNGMLRYRILSQAPSTPSPNMFTINNETGDIITVAAGLDREKVQQYTLIIQATDMEGNPTYGLSNTATAVITVTDVNDNPPEFTAMTFYGEVPENRVDVIVANLTVTDKDQPHTPAWNAAYRISGGDPTGRFAILTDPNSNDGLVTVVKPIDFETNRMFVLTVAAENQVPLAKGIQHPPQSTATVSVTVIDVNENPYFAPNPKIIRQEEGLHAGTMLTTLTAQDPDRYMQQNIRYTKLSDPANWLKIDPVNGQITTIAVLDRESPNVKNNIYNATFLASDNGIPPMSGTGTLQIYLLDINDNAPQVLPQEAETCETPEPNSINITALDYDIDPNAGPFAFDLPLSPVTIKRNWTINRLNGDFAQLNLKIKFLEAGIYEVPIIITDSGNPPKSNISILRVKVCQCDSNGDCTDVDRIVGAGLGTGAIIAILLCIIILLILVLMFVVWMKRRDKERQAKQLLIDPEDDVRDNILKYDEEGGGEEDQDYDLSQLQQPDTVEPDAIKPVGIRRLDERPIHAEPQYPVRSAAPHPGDIGDFINEGLKAADNDPTAPPYDSLLVFDYEGSGSTAGSLSSLNSSSSGGDQDYDYLNDWGPRFKKLADMYGGGDD
notes: whole, on cells; Detected by immunostaining
  binding result: binds
